Measurements as given in paper PMC11490885.

Biological target: hβ3-ICL-del 1D4 (human GABAA receptor β3 subunit, intracellular loop deleted, homomeric receptor) (human)
Assay: native MS; purified β3-ICL-del receptor, buffer exchanged into 200 mM ammonium acetate pH 8, 0.08 mM DMNG; static nanospray, Q-Exactive EMR; unlabeled receptor seen as a single species; pentamer

stoichiometry N: 5
Substance: hβ3-ICL-del 1D4 (human GABAA receptor β3 subunit, intracellular loop deleted, homomeric receptor)
